Test results: US5486595A, “Tumor necrosis factor inhibitors” (Centecor, Inc., priority 1994, dated 1996)
Where no end group is shown, it is not given here.

Each substance was assayed against T1, human TNFα (Homo sapiens, UniProt P01375) (assay: p55 Receptor/IgG Fusion Protein Binding Assay (inhibition of TNFα capture by p55-Ig coated plate)). Details: peptide 1 mM; TNFα 25 ng/ml.
T1 construct: purchased Biosource, Camarillo, Calif
T1 sequence (P01375 77-233 limits assumed): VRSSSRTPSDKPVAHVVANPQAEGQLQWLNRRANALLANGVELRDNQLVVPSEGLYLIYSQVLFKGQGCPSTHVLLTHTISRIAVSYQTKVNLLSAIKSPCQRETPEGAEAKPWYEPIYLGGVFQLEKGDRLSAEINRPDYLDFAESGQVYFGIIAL

Row | inhibition of binding of TNFα to p55TNFr-IgG chimeric construct | Substance
1 | 77% | SEQ ID NO:37: peptide of the invention that inhibits TNFα; sequence not printed (DSTYTQLWNWVPEAL)
2 | 64% | SEQ ID NO:38: peptide of the invention that inhibits TNFα; sequence not printed (YTQLWNWVPEALSAG)
3 | 42% | SEQ ID NO:39: peptide of the invention that inhibits TNFα; sequence not printed (LWNWVPEALSAGSRA)
4 | 72% | SEQ ID NO:40: peptide of the invention that inhibits TNFα; sequence not printed (WVPEALSAGSRASSD)
5 | 68% | SEQ ID NO:41: peptide of the invention that inhibits TNFα; sequence not printed (EALSAGSRASSDQVE)
6 | 40% | SEQ ID NO:42: peptide of the invention that inhibits TNFα; sequence not printed (SSDQVETQAATREQN)
7 | 37% | SEQ ID NO:43: peptide of the invention that inhibits TNFα; sequence not printed (PGWYAALSKQEGARL)
8 | 28% | SEQ ID NO:44: peptide of the invention that inhibits TNFα; sequence not printed (AAPGTFSNTTSSTDI)
9 | 73% | SEQ ID NO:45: peptide of the invention that inhibits TNFα; sequence not printed (GTFSNTTSSTDIARP; also: C-terminal blocking group)
10 | 66% | SEQ ID NO:46: peptide of the invention that inhibits TNFα; sequence not printed (SNTTSSTDIARPHQI)
11 | 29% | SEQ ID NO:47: peptide of the invention that inhibits TNFα; sequence not printed (TSSTDIARPHQIANV)
12 | 27% | SEQ ID NO:48: peptide of the invention that inhibits TNFα; sequence not printed (TDIARPHQIANVVAI)
13 | 26% | SEQ ID NO:49: peptide of the invention that inhibits TNFα; sequence not printed (ARPHQIANVVAIPGN)
14 | 29% | SEQ ID NO:50: peptide of the invention that inhibits TNFα; sequence not printed (VAIPGNASRDAVATS)
15 | 68% | SEQ ID NO:51: peptide of the invention that inhibits TNFα; sequence not printed (PGNASRDAVATSTSP)
16 | 63% | SEQ ID NO:52: peptide of the invention that inhibits TNFα; sequence not printed (ASRDAVATSTSPTRS)
17 | 63% | SEQ ID NO:53: peptide of the invention that inhibits TNFα; sequence not printed (DAVATSTSPTRSMAP)

Same assay, conditions: various concentrations of peptide

Row | dose dependent inhibition of TNFα (FIG. 1) | Substance
18 | dose dependent inhibition | SEQ ID NO:45: peptide of the invention that inhibits TNFα; sequence not printed (GTFSNTTSSTDIARP; also: C-terminal blocking group)
